Experimental data published in the supplement of paper PMC9112550, “Optimization of the antimicrobial peptide Bac7 by deep mutational scanning” (BMC Biology, 2022).

System: Escherichia coli TOP10
Experiment: shrunken log2 fold change of peptide-encoding DNA abundance (4.5 h post-induction vs induction); higher = less antimicrobial activity (less host growth inhibition)
Conditions: time post-induction: 4.5 h; library: site-saturation at positions 5, 18, 19, 20
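Note: peptides expressed intracellularly from a pBAD plasmid library in pooled LB shake-flask culture, induced with 0.3% L-arabinose, DNA abundance read by NGS, three biological replicates, DESeq2 with apeglm shrinkage.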

Sequence | shrunken log2 fold change
RRIRNRPPRLPRPRPRPMTYPRP | -0.0655
RRIRNRPPRLPRPRPRPMVMPRP | -0.383
RRIRNRPPRLPRPRPRPMWIPRP | -0.148
RRIRNRPPRLPRPRPRPMWWPRP | -0.0071
RRIRNRPPRLPRPRPRPMWYPRP | -0.0267
RRIRNRPPRLPRPRPRPMYIPRP | -1.03
RRIRNRPPRLPRPRPRPNAFPRP | -0.126
RRIRNRPPRLPRPRPRPNATPRP | -0.185
RRIRNRPPRLPRPRPRPNCMPRP | -0.0251
RRIRNRPPRLPRPRPRPNCRPRP | -0.0373
RRIRNRPPRLPRPRPRPNEAPRP | -0.00931
RRIRNRPPRLPRPRPRPNEDPRP | 0.00927
RRIRNRPPRLPRPRPRPNGMPRP | -0.00904
RRIRNRPPRLPRPRPRPNHMPRP | -0.16
RRIRNRPPRLPRPRPRPNHRPRP | -0.216
RRIRNRPPRLPRPRPRPNIAPRP | -0.352
RRIRNRPPRLPRPRPRPNKEPRP | -0.0761
RRIRNRPPRLPRPRPRPNKFPRP | -0.597
RRIRNRPPRLPRPRPRPNKKPRP | -0.198
RRIRNRPPRLPRPRPRPNPTPRP | -0.124
RRIRNRPPRLPRPRPRPNQKPRP | -0.174
RRIRNRPPRLPRPRPRPNQNPRP | 0.337
RRIRNRPPRLPRPRPRPNQWPRP | -0.171
RRIRNRPPRLPRPRPRPNRFPRP | 0.0252
RRIRNRPPRLPRPRPRPNSTPRP | 2.34

Sequence | shrunken log2 fold change
RRIRNRPPRLPRPRPRPNTKPRP | -0.306
RRIRNRPPRLPRPRPRPNTPPRP | -0.543
RRIRNRPPRLPRPRPRPNTVPRP | -0.409
RRIRNRPPRLPRPRPRPNVMPRP | -0.16
RRIRNRPPRLPRPRPRPNWWPRP | -0.0262
RRIRNRPPRLPRPRPRPNYAPRP | -0.178
RRIRNRPPRLPRPRPRPNYGPRP | -0.0781
RRIRNRPPRLPRPRPRPNYPPRP | -0.0819
RRIRNRPPRLPRPRPRPPCNPRP | -0.517
RRIRNRPPRLPRPRPRPPDMPRP | 0.0955
RRIRNRPPRLPRPRPRPPDRPRP | 0.00517
RRIRNRPPRLPRPRPRPPDTPRP | -0.0361
RRIRNRPPRLPRPRPRPPEAPRP | 0.0101
RRIRNRPPRLPRPRPRPPEIPRP | -0.169
RRIRNRPPRLPRPRPRPPEPPRP | 0.184
RRIRNRPPRLPRPRPRPPFRPRP | 0.153
RRIRNRPPRLPRPRPRPPFSPRP | 0.032
RRIRNRPPRLPRPRPRPPFWPRP | 0.196
RRIRNRPPRLPRPRPRPPGEPRP | 0.0757
RRIRNRPPRLPRPRPRPPGSPRP | -0.123
RRIRNRPPRLPRPRPRPPGYPRP | 0.39
RRIRNRPPRLPRPRPRPPHNPRP | 0.216
RRIRNRPPRLPRPRPRPPHSPRP | 0.183
RRIRNRPPRLPRPRPRPPKGPRP | 0.112
RRIRNRPPRLPRPRPRPPKHPRP | 0.157

Sequence | shrunken log2 fold change
RRIRNRPPRLPRPRPRPPLVPRP | 0.089
RRIRNRPPRLPRPRPRPPMDPRP | -0.508
RRIRNRPPRLPRPRPRPPMRPRP | 1.05
RRIRNRPPRLPRPRPRPPMYPRP | -0.25
RRIRNRPPRLPRPRPRPPPDPRP | 0.794
RRIRNRPPRLPRPRPRPPRPPRP | 0.704
RRIRNRPPRLPRPRPRPPSPPRP | 0.538
RRIRNRPPRLPRPRPRPPTRPRP | 0.29
RRIRNRPPRLPRPRPRPPTYPRP | -0.217
RRIRNRPPRLPRPRPRPPVMPRP | 0.139
RRIRNRPPRLPRPRPRPPWQPRP | 0.161
RRIRNRPPRLPRPRPRPPYNPRP | -0.627
RRIRNRPPRLPRPRPRPQAKPRP | -0.00911
RRIRNRPPRLPRPRPRPQCRPRP | -0.132
RRIRNRPPRLPRPRPRPQDIPRP | -0.252
RRIRNRPPRLPRPRPRPQFVPRP | -0.0944
RRIRNRPPRLPRPRPRPQFWPRP | 0.0339
RRIRNRPPRLPRPRPRPQHNPRP | -0.625
RRIRNRPPRLPRPRPRPQIQPRP | -0.214
RRIRNRPPRLPRPRPRPQIWPRP | 0.0573
RRIRNRPPRLPRPRPRPQLHPRP | -0.358
RRIRNRPPRLPRPRPRPQLQPRP | -0.0979
RRIRNRPPRLPRPRPRPQMNPRP | -0.614
RRIRNRPPRLPRPRPRPQMRPRP | 0.308
RRIRNRPPRLPRPRPRPQMVPRP | -0.00674

Sequence | shrunken log2 fold change
RRIRNRPPRLPRPRPRPQNIPRP | -0.263
RRIRNRPPRLPRPRPRPQPEPRP | 0.0878
RRIRNRPPRLPRPRPRPQQHPRP | -0.111
RRIRNRPPRLPRPRPRPQQKPRP | 0.0694
RRIRNRPPRLPRPRPRPQQSPRP | -0.0808
RRIRNRPPRLPRPRPRPQRDPRP | 0.0103
RRIRNRPPRLPRPRPRPQRHPRP | -0.0566
RRIRNRPPRLPRPRPRPQRKPRP | 0.103
RRIRNRPPRLPRPRPRPQSKPRP | -0.301
RRIRNRPPRLPRPRPRPQTAPRP | -0.0947
RRIRNRPPRLPRPRPRPQTHPRP | -0.217
RRIRNRPPRLPRPRPRPQWCPRP | -0.0662
RRIRNRPPRLPRPRPRPQYHPRP | -0.767
RRIRNRPPRLPRPRPRPRACPRP | -0.0233
RRIRNRPPRLPRPRPRPRALPRP | 0.117
RRIRNRPPRLPRPRPRPRAPPRP | 0.972
RRIRNRPPRLPRPRPRPRAWPRP | -0.054
RRIRNRPPRLPRPRPRPRCVPRP | -0.0119
RRIRNRPPRLPRPRPRPRCYPRP | -0.0588
RRIRNRPPRLPRPRPRPRDKPRP | -0.332
RRIRNRPPRLPRPRPRPREFPRP | 0.306
RRIRNRPPRLPRPRPRPRFAPRP | 0.164
RRIRNRPPRLPRPRPRPRHRPRP | 0.202
RRIRNRPPRLPRPRPRPRILPRP | -0.0548
RRIRNRPPRLPRPRPRPRMHPRP | 0.217

Sequence | shrunken log2 fold change
RRIRNRPPRLPRPRPRPRMWPRP | 0.28
RRIRNRPPRLPRPRPRPRNKPRP | -0.107
RRIRNRPPRLPRPRPRPRPCPRP | 0.0913
RRIRNRPPRLPRPRPRPRPGPRP | 0.638
RRIRNRPPRLPRPRPRPRQCPRP | 0.0196
RRIRNRPPRLPRPRPRPRQKPRP | -0.0544
RRIRNRPPRLPRPRPRPRQMPRP | 0.0821
RRIRNRPPRLPRPRPRPRSAPRP | 0.0888
RRIRNRPPRLPRPRPRPRSCPRP | 0.763
RRIRNRPPRLPRPRPRPRSFPRP | 0.0523
RRIRNRPPRLPRPRPRPRSKPRP | 0.0945
RRIRNRPPRLPRPRPRPRSPPRP | 2
RRIRNRPPRLPRPRPRPRSYPRP | -0.0727
RRIRNRPPRLPRPRPRPRTPPRP | 0.261
RRIRNRPPRLPRPRPRPRVDPRP | 0.0415
RRIRNRPPRLPRPRPRPRWLPRP | 0.558
RRIRNRPPRLPRPRPRPRWSPRP | -0.054
RRIRNRPPRLPRPRPRPSACPRP | -0.0258
RRIRNRPPRLPRPRPRPSAVPRP | -0.193
RRIRNRPPRLPRPRPRPSCDPRP | -0.179
RRIRNRPPRLPRPRPRPSCYPRP | -0.181
RRIRNRPPRLPRPRPRPSDRPRP | -0.0382
RRIRNRPPRLPRPRPRPSDSPRP | -0.0909
RRIRNRPPRLPRPRPRPSFLPRP | -0.473
RRIRNRPPRLPRPRPRPSGRPRP | -0.0659

Sequence | shrunken log2 fold change
RRIRNRPPRLPRPRPRPSHAPRP | -0.859
RRIRNRPPRLPRPRPRPSKGPRP | -0.00183
RRIRNRPPRLPRPRPRPSMCPRP | -0.0503
RRIRNRPPRLPRPRPRPSMFPRP | -0.458
RRIRNRPPRLPRPRPRPSNVPRP | -0.615
RRIRNRPPRLPRPRPRPSPDPRP | 0.0143
RRIRNRPPRLPRPRPRPSPQPRP | 0.162
RRIRNRPPRLPRPRPRPSQVPRP | -0.0797
RRIRNRPPRLPRPRPRPSRGPRP | 0.513
RRIRNRPPRLPRPRPRPSRHPRP | -0.061
RRIRNRPPRLPRPRPRPSRYPRP | -0.000156
RRIRNRPPRLPRPRPRPSSGPRP | -0.649
RRIRNRPPRLPRPRPRPSSNPRP | -0.416
RRIRNRPPRLPRPRPRPSTCPRP | -0.186
RRIRNRPPRLPRPRPRPSTEPRP | 0.118
RRIRNRPPRLPRPRPRPSWAPRP | -0.249
RRIRNRPPRLPRPRPRPSWKPRP | 0.0635
RRIRNRPPRLPRPRPRPSWLPRP | -0.361
RRIRNRPPRLPRPRPRPSWSPRP | -0.0724
RRIRNRPPRLPRPRPRPSYLPRP | -0.959
RRIRNRPPRLPRPRPRPSYMPRP | -1.71
RRIRNRPPRLPRPRPRPTAGPRP | 0.0608
RRIRNRPPRLPRPRPRPTASPRP | 1.61
RRIRNRPPRLPRPRPRPTAYPRP | -0.184
RRIRNRPPRLPRPRPRPTCRPRP | 0.142
